Laboratory results taken from patent US20140259226.
Where a chain is given by its changes, count along the chain named.

Experiments:
[1] = target: T1, 6X His-PYR1 A89W
T1 chain: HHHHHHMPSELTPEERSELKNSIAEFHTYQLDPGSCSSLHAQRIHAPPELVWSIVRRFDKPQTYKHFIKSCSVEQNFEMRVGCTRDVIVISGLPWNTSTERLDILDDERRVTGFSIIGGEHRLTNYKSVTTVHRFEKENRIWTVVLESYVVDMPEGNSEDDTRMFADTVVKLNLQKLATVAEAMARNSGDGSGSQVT

[2] = target: T2, 6X His-PYR1 F159V
T2 chain: T1 chain with W95A, F165V

[3] = target: T3, 6X His-PYR1 H60P
T3 chain: T1 chain with H66P, W95A

[4] = target: T4, 6X His-PYR1 I84Q
T4 chain: T1 chain with I90Q, W95A

[5] = target: T5, 6X His-PYR1 K170W
T5 chain: T1 chain with W95A, K176W

[6] = target: T6, 6X His-PYR1 M158I
T6 chain: T1 chain with W95A, M164I

[7] = target: T7, 6X His-PYR1 T162F
T7 chain: T1 chain with W95A, T168F

[8] = target: T8, 6X His-PYR1 V83F
T8 chain: T1 chain with V89F, W95A

[9] = target: T9, 6x-His-PYL10, wild type
T9 chain: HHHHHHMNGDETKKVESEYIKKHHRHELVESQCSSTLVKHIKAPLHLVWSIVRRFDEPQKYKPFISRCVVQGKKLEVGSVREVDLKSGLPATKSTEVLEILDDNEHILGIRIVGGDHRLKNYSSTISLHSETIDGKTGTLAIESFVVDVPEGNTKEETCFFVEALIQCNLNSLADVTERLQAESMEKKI

[10] = target: T10, 6x-His-PYL6, wild type
T10 chain: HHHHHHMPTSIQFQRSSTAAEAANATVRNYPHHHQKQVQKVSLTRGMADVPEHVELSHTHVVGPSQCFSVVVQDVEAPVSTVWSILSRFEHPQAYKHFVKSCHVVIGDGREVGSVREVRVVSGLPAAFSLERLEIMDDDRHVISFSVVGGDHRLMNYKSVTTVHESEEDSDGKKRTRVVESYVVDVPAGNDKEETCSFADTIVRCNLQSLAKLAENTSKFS

[11] = target: T11, PYL2^CA4C (H65P, A93W, M164I, F165V), 6xHis fusion
T11 chain: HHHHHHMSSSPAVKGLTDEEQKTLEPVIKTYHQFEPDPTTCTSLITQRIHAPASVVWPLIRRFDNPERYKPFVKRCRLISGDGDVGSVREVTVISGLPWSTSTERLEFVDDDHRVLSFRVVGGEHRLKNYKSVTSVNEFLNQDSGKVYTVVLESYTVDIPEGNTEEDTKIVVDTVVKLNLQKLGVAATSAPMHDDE

[12] = target: T12, PYL9^CA4C (A91W, Y160I, F161V), 6xHis fusion
T12 chain: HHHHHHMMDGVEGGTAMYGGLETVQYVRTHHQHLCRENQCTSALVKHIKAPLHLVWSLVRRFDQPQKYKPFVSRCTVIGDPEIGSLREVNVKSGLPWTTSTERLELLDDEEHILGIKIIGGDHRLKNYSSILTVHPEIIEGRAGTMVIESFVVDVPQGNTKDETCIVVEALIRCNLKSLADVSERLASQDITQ

[13] = target: T13, PYR1^CA3 (H60P, V83F, F159V), 6xHis fusion
T13 chain: T1 chain with H66P, V89F, W95A, F165V

[14] = target: T14, PYR1^CA4 (H60P, V83F, F159V, M158I), 6xHis fusion
T14 chain: T1 chain with H66P, V89F, W95A, M164I, F165V

[15] = target: T15, PYR1^CA4B (V83F, M158I, F159V, K170W), 6xHis fusion
T15 chain: T1 chain with V89F, W95A, M164I, F165V, K176W

[16] = target: T16, PYR1^CA4C (H60P, A89W, M158I, F159V), 6xHis fusion
T16 chain: T1 chain with H66P, M164I, F165V

B1: GST-HAB1 (protein)
chain: SPVEITQLKNVTDAADLLSDSENQSFCNGGTECTMEDVSELEEVGEQDLLKTLSDTRSGSSNVFDEDDVLSVVEDNSAVISEGLLVVDAGSELSLSNTAMEIDNGRVLATAIIVGESSIEQVPTAEVLIAGVNQDTNTSEVVIRLPDENSNHLVKGRSVYELDCIPLWGTVSIQGNRSEMEDAFAVSPHFLKLPIKMLMGDHEGMSPSLTHLTGHFFGVYDGHGGHKVADYCRDRLHFALAEEIERIKDELCKRNTGEGRQVQWDKVFTSCFLTVDGEIEGKIGRAVVGSSDKVLEAVASETVGSTAVVALVCSSHIVVSNCGDSRAVLFRGKEAMPLSVDHKPDREDEYARIENAGGKVIQWQGARVFGVLAMSRSIGDRYLKPYVIPEPEVTFMPRSREDECLILASDGLWDVMNNQEVCEIARRRILMWHKKNGAPPLAERGKGIDPACQAAADYLSMLALQKGSKDNISIIVIDLKAQRKFKTRT
- HAB1 phosphatase (PP2C) activity, % of control, pNPP hydrolysis, in the absence of ABA [1]: each of the activating mutants increased basal receptor activity in comparison to wild-type PYR1
- HAB1 phosphatase (PP2C) activity, % of control, pNPP hydrolysis, in the absence of ABA [2]: each of the activating mutants increased basal receptor activity in comparison to wild-type PYR1
- HAB1 phosphatase (PP2C) activity, % of control, pNPP hydrolysis, in the absence of ABA [3]: each of the activating mutants increased basal receptor activity in comparison to wild-type PYR1
- HAB1 phosphatase (PP2C) activity, % of control, pNPP hydrolysis, in the absence of ABA [4]: each of the activating mutants increased basal receptor activity in comparison to wild-type PYR1
- HAB1 phosphatase (PP2C) activity, % of control, pNPP hydrolysis, in the absence of ABA [5]: each of the activating mutants increased basal receptor activity in comparison to wild-type PYR1
- HAB1 phosphatase (PP2C) activity, % of control, pNPP hydrolysis, in the absence of ABA [6]: each of the activating mutants increased basal receptor activity in comparison to wild-type PYR1
- HAB1 phosphatase (PP2C) activity, % of control, pNPP hydrolysis, in the absence of ABA [7]: each of the activating mutants increased basal receptor activity in comparison to wild-type PYR1
- HAB1 phosphatase (PP2C) activity, % of control, pNPP hydrolysis, in the absence of ABA [8]: each of the activating mutants increased basal receptor activity in comparison to wild-type PYR1
- PP2C activity, % of control, pNPP hydrolysis, with 0 or 10 µM ABA [9]: PYL6 and PYL10, which have high basal activities ..., are not full CA receptors
- PP2C activity, % of control, pNPP hydrolysis, with 0 or 10 µM ABA [10]: PYL6 and PYL10, which have high basal activities ..., are not full CA receptors
- PP2C activity, % of control, pNPP hydrolysis, in the absence of ABA [11]: the mutant proteins were highly activated in the absence of ABA in comparison to wild-type PYL2 or PYL9
- PP2C activity, % of control, pNPP hydrolysis, in the absence of ABA [12]: the mutant proteins were highly activated in the absence of ABA in comparison to wild-type PYL2 or PYL9
- PP2C activity, % of control, pNPP hydrolysis, in the absence of ABA [13]: both the triple and quadruple mutants dramatically increased basal PYR1 activity relative to wild-type PYR1
- PP2C activity, % of control, pNPP hydrolysis, in the absence of ABA [14]: both the triple and quadruple mutants dramatically increased basal PYR1 activity relative to wild-type PYR1
- PP2C activity, % of control, pNPP hydrolysis, in the absence of ABA [15]: both the PYR1^CA4B and PYR1^CAc mutants dramatically increased basal PYR1 activity relative to wild-type PYR1
- PP2C activity, % of control, pNPP hydrolysis, in the absence of ABA [16]: both the PYR1^CA4B and PYR1^CAc mutants dramatically increased basal PYR1 activity relative to wild-type PYR1
